From article PMC12440807

Target: RNA polymerase II;RECQL5 (Sus scrofa domesticus?;Homo sapiens, UniProt A0A8D1DPV6;A0A0B8RVL1;P19387;O15514;I3LSI7;P61218;P62487;P52434;P36954;P52435;P6 …, |)
Experiment: cryo-EM; phosphorylated Pol II; 2.8 A; Mg, Zn in model
Conditions: protein: native;recombinant; tags: none;His6-MBP, TEV-cleaved; copies: 1;1;1;1;1;1;1;1;1;1;1;1;1

RNA polymerase II;RECQL5, sequence (O94762 whole entry, one chain of several): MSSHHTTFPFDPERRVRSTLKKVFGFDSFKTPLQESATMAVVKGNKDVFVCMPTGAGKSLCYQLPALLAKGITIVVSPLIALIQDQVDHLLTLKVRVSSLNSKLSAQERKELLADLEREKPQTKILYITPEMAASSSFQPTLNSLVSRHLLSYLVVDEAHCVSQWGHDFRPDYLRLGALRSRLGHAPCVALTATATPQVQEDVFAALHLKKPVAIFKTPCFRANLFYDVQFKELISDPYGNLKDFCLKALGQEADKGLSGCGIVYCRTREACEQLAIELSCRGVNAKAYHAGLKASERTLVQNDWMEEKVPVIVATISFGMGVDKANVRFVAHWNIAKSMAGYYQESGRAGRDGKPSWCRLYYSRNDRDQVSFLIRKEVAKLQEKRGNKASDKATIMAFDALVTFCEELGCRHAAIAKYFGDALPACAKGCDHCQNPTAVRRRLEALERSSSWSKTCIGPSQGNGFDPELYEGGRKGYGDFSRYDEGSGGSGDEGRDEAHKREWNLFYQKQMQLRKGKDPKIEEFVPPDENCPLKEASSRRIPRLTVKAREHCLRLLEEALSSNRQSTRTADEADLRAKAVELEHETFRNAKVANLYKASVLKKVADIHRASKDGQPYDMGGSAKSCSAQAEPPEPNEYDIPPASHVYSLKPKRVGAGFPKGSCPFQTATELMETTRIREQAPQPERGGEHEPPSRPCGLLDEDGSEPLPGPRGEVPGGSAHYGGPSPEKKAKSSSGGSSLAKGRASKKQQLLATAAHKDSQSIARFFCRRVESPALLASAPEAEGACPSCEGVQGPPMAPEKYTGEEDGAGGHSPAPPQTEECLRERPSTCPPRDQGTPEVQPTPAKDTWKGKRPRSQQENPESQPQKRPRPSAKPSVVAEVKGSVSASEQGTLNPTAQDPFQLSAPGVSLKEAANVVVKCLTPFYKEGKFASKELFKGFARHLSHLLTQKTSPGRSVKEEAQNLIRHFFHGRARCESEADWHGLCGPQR

B1: EC DNA-RNA scaffold (mixed)
DNA 1: GCTCCCAGCTCCCTGCTGGCTCCGAGTGGGTTCTGCCGCTCTCAATGG
DNA 2: CCATTGAGAGCGGCCCTTGTGTTCAGGAGCCAGCAGGGAGCTGGGAGC
RNA: GAGAGGGAACCCACU
binding result: binds
